# Publication PMC3169408, “Structure of triosephosphate isomerase from Cryptosporidium parvum” (Acta Crystallographica Section F: Structural Biology and …, 2011)
# B1: triosephosphate isomerase from Cryptosporidium parvum Iowa II (enzyme, UniProt Q5CSE7 1-250, looked up)
# chain: MSRKYFVGGNFKCNGTKESLKTLIDSFKQVESSNSEVYVFPTSLHISLVKEFFGNDHPGVFKIGSQNISCTGNGAFTGEVSCEMLKDMDVDCSLVGHSERRQYYSETDQIVNNKVKKGLENGLKIVLCIGESLSERETGKTNDVIQKQLTEALKDVSDLSNLVIAYEPIWAIGTGVVATPGQAQEAHAFIREYVTRMYNPQVSSNLRIIYGGSVTPDNCNELIKCADIDGFLVGGASLKPTFAKIIESAQ
# notes: triosephosphate isomerase, Cryptosporidium parvum Iowa II, UniProt Q5CSE7, residues 1-250 (Met1-Gln250), full length; The final model extends from Ser2 to Gln250 in both chains; also called TIM; CrpaA.01119.a.A1; source: E. coli Rosetta Oxford strain [BL21*(DE3)-R3-pRARE2], purified (IMAC, tag cleavage with 3C protease, SEC)
# Target: the molecule itself
# Experiment: crystal structure; crystals from 100 mM Bis-Tris propane pH 7.5, 200 mM sodium sulfate, 20% PEG 3350; space group P2(1); 1.55 Å; two molecules per asymmetric unit; interface analysed with PISA
protein,measurement,value
B1,stoichiometry N,2
